Patent US11505576B2, “Polypeptides based on a scaffold” (AFFIBODY AB, priority 2018, dated 2022)
pKd: −log10 of the molar value. Values belong to the substance of their own block, whether it stands above or below them.

Columns and labels:
insulin = target: T1, insulin (Homo sapiens, UniProt P01308); assay: Kinetic analysis using surface plasmon resonance (Biacore T200), immobilized insulin; assay type: binding; conditions: MGSSHHHHHHGSS-[Y#####]
T1 construct: purchased Roche 1376497
Experimental: Kinetic constants (ka and kd) and affinities (KD) were determined for His6-tagged Y variants using a Biacore T200 instrument (GE Healthcare). Target proteins C4, IL-6 and insulin, respectively, were immobilized in separate flow cells on the carboxylated dextran layer of different CM5 chip surfaces (GE Healthcare). Immobilization was performed using amine coupling chemistry according to the manufacturer's protocol and PBS pH 7.4 supplemented with 0.1 Tween20 (PBST 0.1%) as running buffer. The ligand immobilization levels on the surfaces were 3280-8830 RU for C4, 495-1184 RU for IL-6, and 270-282 RU for insulin. One flow cell surface on each chip was activated and deactivated for use as blank during analyte injections. In the kinetic experiment, PBST 0.1% was used as running buffer at a flow rate of 30 μl/min. The analytes, i.e. Y variants, were each diluted in PBST 0.1 buffer at concentrations of 1000, 500, 100, 50 and 10 nM and injected for 5 min, followed by dissociation in running buffer for 3 min. After dissociation, the surfaces were regenerated with one injection of 30 μl 10 mM HCl. Kinetic constants were calculated from the sensorgrams using the Langmuir 1:1 model of Biacore T200 Evaluation software 2.0 (GE Healthcare).
(§1) Produced Y variants were subjected to CD and SPR analyses according to the methods described in Example 1.
(§2) The Y variants were cloned, produced and characterized according to the general methods described in Example 1. Produced Y variants with point mutations and/or N-terminal or C-terminal extensions were subjected to CD and SPR analyses as described in Example 1.
(§3) Produced Y variants were subjected to CD and SPR analyses according to the methods described in Example 1. In addition, CD spectra of selected IL-6 binding variants were also recorded at 60, 70, 80 and 90° C.
(§4) The Y variants were cloned, produced and characterized according to the general methods described in Example 1. Produced Y variants with point mutations were subjected to CD and SPR analyses as described in Example 1. In addition, CD spectra of the IL-6 binding variants were also recorded at 60, 70, 80 and 90° C.

[1] = Circular dichroism spectroscopy analysis (CD spectra, variable temperature measurement, refolding); assay type: physicochemical
Experimental: The respective Y variant was diluted to 0.5 mg/ml in PBS. A CD spectrum at 250-195 nm was obtained at 20° C. In addition, a variable temperature measurement (VTM) was performed to determine the melting temperature (Tm). In the VTM, absorbance was measured at 221 nm while the temperature was raised from 20° C. to 90° C. with a temperature gradient of 5° C./min. A new CD spectrum was obtained at 20° C. after the heating procedure, in order to study the refolding ability of the Y variants. The CD measurements were performed on a Jasco J-810 spectropolarimeter (Jasco Scandinavia AB) using a cell with an optical path length of 1 mm.
as §1, §2, §3, §4

[2] = Fraction of soluble product on expression in E. coli, estimated from SDS-PAGE; assay type: physicochemical; conditions: for Est soluble fraction: Table 9, mutation study 5
Experimental: E. coli T7E2 cells were transformed with plasmids containing the gene fragment of each respective Y variant. The resulting recombinant strains were generally cultivated in media supplemented with 50 μg/ml kanamycin at 30-37° C. in 50 ml scale using the EnPresso protocol (Enpresso GmbH). In order to induce protein expression, isopropyl-β-D-1-thiogalactopyranoside (IPTG) was added to a final concentration of 0.5 mM at an optical density at 600 nm (OD600) of approximately 10. After induction, the cultures were incubated for 16 h. The cells were harvested by centrifugation. Alternatively, the culture was performed at 37° C. in 980 ml of TSB-YE medium (tryptic soy broth 30 g/l supplemented with yeast extract 5 g/l) supplemented with 50 μg/ml kanamycin, and protein expression induced with 0.2 mM IPTG at OD600=2, followed by incubation for 5 h before harvesting of the cells by centrifugation. The total yield as well as the fraction of soluble and insoluble product of the respective Y variant was estimated based on SDS-PAGE analysis.

[3] = Table 3, mutation study 1, MGSSHHHHHHGSS-[Y#####]
[4] = Table 4, mutation study 2, MGSSHHHHHHGSS-[Y#####]
[5] = Table 8, mutation study 4, MGSSHHHHHHGSS-[Y#####]
[6] = Table 9, mutation study 5, MGSSHHHHHHGSS-[Y#####]-A

T1 sequence (P01308 25-54 limits assumed): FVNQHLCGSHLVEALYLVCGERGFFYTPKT
T1 sequence (P01308 90-110 limits assumed): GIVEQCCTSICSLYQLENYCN

pKd (insulin; Table 3, mutation study 1): 7.23
Substance: Y00275: insulin binding Y variant, Y00032 with E39Q, SEQ ID NO:122 (LAEAKEAAIAELDSKGVGAYQKSFIELAKSVEHVELLKQAILADLP; Engineered insulin binding Y variant)
Tm [1, 3]: 54 °C

pKd (insulin; Table 3, mutation study 1): 7.12
Substance: Y00276: insulin binding Y variant, Y00032 with A43K, SEQ ID NO:123 (LAEAKEAAIAELDSKGVGAYQKSFIELAKSVEHVELLKEAILKDLP; Engineered insulin binding Y variant)
Tm [1, 3]: 50 °C

pKd (insulin; Table 4, mutation study 2): 6.35
Substance: Y00292: insulin binding Y variant, Y00032 with S23K + E35Q + E39Q, SEQ ID NO:124 (LAEAKEAAIAELDSKGVGAYQKKFIELAKSVEHVQLLKQAILADLP; Engineered insulin binding Y variant)
Tm [1, 4]: 57 °C

pKd (insulin; Table 4, mutation study 2): 6.31
Substance: Y00293: insulin binding Y variant, Y00270 with E35Q + E39Q, SEQ ID NO:125 (LAEAKEAAIAELDSKGVGAYQIKFIELAKSVEHVQLLKQAILADLP; Engineered insulin binding Y variant)
Tm [1, 4]: 56 °C

pKd (insulin; Table 4, mutation study 2): 6.31
Substance: Y00294: insulin binding Y variant, Y00270 with E35Q + A43K, SEQ ID NO:126 (LAEAKEAAIAELDSKGVGAYQIKFIELAKSVEHVQLLKEAILKDLP; Engineered insulin binding Y variant)
Tm [1, 4]: 54 °C

pKd (insulin; Table 4, mutation study 2): 6.24
Substance: Y00295: insulin binding Y variant, Y00270 with E35Q + E39Q + A43K, SEQ ID NO:127 (LAEAKEAAIAELDSKGVGAYQIKFIELAKSVEHVQLLKQAILKDLP; Engineered insulin binding Y variant)
Tm [1, 4]: 52 °C

Substance: Y00356: insulin binding Y variant, SEQ ID NO:140, template of mutation study 4 (LAEAKEAAIAELDSKGVGAKYIKMIQHAHYVEVVQWLKQAILAHLP; Engineered insulin binding Y variant)
Tm [1, 5]: 57 °C | Estimated soluble fraction [2, 5]: 43%

Substance: Y02310: C4 binding Y variant from Ylib002Naive.I, SEQ ID NO:36 (LAEAKEAAIAELDSKGVGADLIKKIQYADTVEGVQFWKQEILAWLPA; Engineered C4 binding Y variant)
Tm ([1]; Table 7, MGSSHHHHHHGSS-[Y#####]-A): 56 °C | Estimated soluble fraction ([2]; Table 7, Ylib002Naive.I selection, MGSSHHHHHHGSS-[Y#####]-A): 100%

Substance: Y02674: insulin binding Y variant, Y00356 with K15Y, SEQ ID NO:146 (LAEAKEAAIAELDSYGVGAKYIKMIQHAHYVEVVQWLKQAILAHLP; Engineered insulin binding Y variant)
Tm [1, 5]: 55 °C | Estimated soluble fraction [2, 5]: 40%

Substance: Y02676: insulin binding Y variant, Y00356 with Q26E, SEQ ID NO:147 (LAEAKEAAIAELDSKGVGAKYIKMIEHAHYVEVVQWLKQAILAHLP; Engineered insulin binding Y variant)
Tm [1, 5]: 56 °C | Estimated soluble fraction [2, 5]: 55%

Substance: Y02683: insulin binding Y variant, Y00356 with I9L, SEQ ID NO:148 (LAEAKEAALAELDSKGVGAKYIKMIQHAHYVEVVQWLKQAILAHLP; Engineered insulin binding Y variant)
Estimated soluble fraction [2, 5]: 92%

Substance: Y02685: C4 binding Y variant, Y00792 with I9L, SEQ ID NO:40 (LAEAKEAALAELDSKGVGADLIKKIQQASSVEGVQFWKQEILAQLPA; Engineered C4 binding Y variant)
Tm [1, 6]: 53 °C | Est soluble fraction ([2]; MGSSHHHHHHGSS-[Y#####]-A): 100%

Substance: Y02686: C4 binding Y variant, Y00792 with K15Y, SEQ ID NO:41 (LAEAKEAAIAELDSYGVGADLIKKIQQASSVEGVQFWKQEILAQLPA; Engineered C4 binding Y variant)
Tm [1, 6]: 59 °C | Est soluble fraction ([2]; MGSSHHHHHHGSS-[Y#####]-A): 100%

Substance: Y02687: C4 binding Y variant, Y00792 with Q26E, SEQ ID NO:42 (LAEAKEAAIAELDSKGVGADLIKKIEQASSVEGVQFWKQEILAQLPA; Engineered C4 binding Y variant)
Tm [1, 6]: 57 °C | Est soluble fraction ([2]; MGSSHHHHHHGSS-[Y#####]-A): 100%
